Experimental findings from US20140335107A1 (published 2014) are described below.

Positions count from the first letter of the chain named. In names and notes the source's numbering stands.

The labels stand for the following.
B1: MA79b-grafted humanized antibody variant 18 (huMA79b.v18) (antibody, human IgG1, kappa)
light: DIQLTQSPSSLSASVGDRVTITCKASQSVDYDGDSFLNWYQQKPGKAPKLLIYAASNLESGVPSRFSGSGSGTDFTLTISSLQPEDFATYYCQQSNEDPLTFGQGTKVEIKRTVAAPSVFIFPPSDEQLKSGTASVVCLLNNFYPREAKVQWKVDNALQSGNSQESVTEQDSKDSTYSLSSTLTLSKADYEKHKVYACEVTHQGLSSPVTKSFNRGEC
heavy: not shown
notes: IgG
B2: thio huMA79b.v28-HC(A118C)-BMPEO-DM1 (antibody, human IgG1, kappa)
light: B1 light with D32E
heavy: not shown
modifications: BMPEO-DM1 on the engineered Cys at EU position 118 (sequential position 118; Kabat position 114)
notes: TDC
B3: thio huMA79b.v28-HC(A118C)-MCvcPAB-MMAE (antibody, human IgG1, kappa)
light: B1 light with D32E
heavy: not shown
modifications: MC-val-cit-PAB-MMAE on the engineered Cys at EU position 118 (sequential position 118; Kabat position 114)
notes: TDC; also called thio huMA79b.v28-HC(A118C)-MC-val-cit-PAB-MMAE
B4: thio huMA79b.v28-HC(A118C)-MC-MMAF (antibody, human IgG1, kappa)
light: B1 light with D32E
heavy: not shown
modifications: MC-MMAF on the engineered Cys at EU position 118 (sequential position 118; Kabat position 114)
notes: TDC
B5: thio huMA79b.v18-HC(A118C)-MC-MMAF (antibody, human IgG1, kappa)
light: B1 light
heavy: not shown
modifications: MC-MMAF on the engineered Cys at EU position 118 (sequential position 118; Kabat position 114)
notes: TDC
B6: thio huMA79b.v18-HC(A118C)-MCvcPAB-MMAE (antibody, human IgG1, kappa)
light: B1 light
heavy: not shown
modifications: MC-val-cit-PAB-MMAE on the engineered Cys at EU position 118 (sequential position 118; Kabat position 114)
notes: TDC
B7: thio huMA79b.v18-HC(A118C)-BMPEO-DM1 (antibody, human IgG1, kappa)
light: B1 light
heavy: not shown
modifications: BMPEO-DM1 on the engineered Cys at EU position 118 (sequential position 118; Kabat position 114)
notes: TDC; also called huMA79b.v18-HC(A118C) thioMAb-BMPEO-DM1
B8: huMA79b graft variant with HVR-L1 of SEQ ID NO: 17 (Fab, name in Kabat numbering, V domains shown)
VH: EVQLVESGGGLVQPGGSLRLSCAASGYTFSSYWIEWVRQAPGKGLEWVGEILPGGGDTNYNEIFKGRFTISADTSKNTAYLQMNSLRAEDTAVYYCTRRVPVYFDYWGQGTLVTVSS
VL: DIQMTQSPSSLSASVGDRVTITCKASKSVDYDGDSFLNWYQQKPGKAPKLLIYAASNLESGVPSRFSGSGSGTDFTLTISSLQPEDFATYYCQQSNEDPLTFGQGTKVEIKR
notes: Fab on phage; also called SPL-2 mutation
B9: huMA79b graft variant with HVR-H1 of SEQ ID NO: 57 (huMA79b H1-6) (Fab, V domains shown)
VH: B8 VH with T28P, S30T, S31R, E35N
VL: DIQMTQSPSSLSASVGDRVTITCKASQSVDYDGDSFLNWYQQKPGKAPKLLIYAASNLESGVPSRFSGSGSGTDFTLTISSLQPEDFATYYCQQSNEDPLTFGQGTKVEIK
notes: Fab on phage; also called H1-6 mutation
B10: huMA79b graft variant with HVR-L2 of SEQ ID NO: 30 (Fab, name in Kabat numbering, V domains shown)
VH: B8 VH
VL: B8 VL with K27Q, S56R, N57K, E59R
notes: Fab on phage
B11: huMA79b graft variant with HVR-L2 of SEQ ID NO: 26 (Fab, name in Kabat numbering, V domains shown)
VH: B8 VH
VL: B8 VL with K27Q, S56R, N57Y, E59K, S60R
notes: Fab on phage; also called L2-29 mutation
B12: huMA79b graft variant with HVR-L2 of SEQ ID NO: 18 (Fab, name in Kabat numbering, V domains shown)
VH: B8 VH
VL: B8 VL with K27Q, L58R
notes: Fab on phage
B13: huMA79b graft variant with HVR-L2 of SEQ ID NO: 19 (Fab, name in Kabat numbering, V domains shown)
VH: B8 VH
VL: B8 VL with K27Q, E59K
notes: Fab on phage
B14: huMA79b graft variant with HVR-L2 of SEQ ID NO: 35 (Fab, name in Kabat numbering, V domains shown)
VH: B8 VH
VL: B8 VL with K27Q, L58R, E59K
notes: Fab on phage
B15: huMA79b graft variant with HVR-L2 of SEQ ID NO: 24 (Fab, name in Kabat numbering, V domains shown)
VH: B8 VH
VL: B8 VL with K27Q, S56R, N57K, E59G, S60N
notes: Fab on phage
B16: huMA79b graft variant with HVR-L2 of SEQ ID NO: 25 (Fab, name in Kabat numbering, V domains shown)
VH: B8 VH
VL: B8 VL with K27Q, S56R, N57K, E59K, S60R
notes: Fab on phage
B17: huMA79b graft variant with HVR-L2 of SEQ ID NO: 36 (Fab, name in Kabat numbering, V domains shown)
VH: B8 VH
VL: B8 VL with K27Q, N57K, E59G
notes: Fab on phage
B18: huMA79b graft variant with HVR-L2 of SEQ ID NO: 33 (Fab, name in Kabat numbering, V domains shown)
VH: B8 VH
VL: B8 VL with K27Q, A55S, S56R, N57Y, E59S, S60R
notes: Fab on phage
B19: huMA79b graft variant with HVR-L2 of SEQ ID NO: 29 (Fab, name in Kabat numbering, V domains shown)
VH: B8 VH
VL: B8 VL with K27Q, S56G, N57I, E59A, S60R
notes: Fab on phage
B20: huMA79b graft variant with HVR-L2 of SEQ ID NO: 34 (Fab, name in Kabat numbering, V domains shown)
VH: B8 VH
VL: B8 VL with K27Q, A55G, N57K, E59L, S60R
notes: Fab on phage
B21: huMA79b graft variant with HVR-L2 of SEQ ID NO: 31 (Fab, name in Kabat numbering, V domains shown)
VH: B8 VH
VL: B8 VL with K27Q, S56R, N57K, E59G
notes: Fab on phage; also called L2-38 mutation
B22: huMA79b graft variant with HVR-L3 of SEQ ID NO: 21 (Fab, name in Kabat numbering, V domains shown)
VH: B8 VH
VL: B8 VL with K27Q, E97K
notes: Fab on phage
B23: huMA79b graft variant with HVR-L2 of SEQ ID NO: 28 (Fab, name in Kabat numbering, V domains shown)
VH: B8 VH
VL: B8 VL with K27Q, S56R, N57K, E59A
notes: Fab on phage
B24: huMA79b graft variant with HVR-L2 of SEQ ID NO: 27 (Fab, name in Kabat numbering, V domains shown)
VH: B8 VH
VL: B8 VL with K27Q, S56R, N57K, E59K
notes: Fab on phage
B25: huMA79b graft variant with HVR-L2 of SEQ ID NO: 23 (Fab, name in Kabat numbering, V domains shown)
VH: B8 VH
VL: B8 VL with K27Q, N57R
notes: Fab on phage
B26: huMA79b graft variant with HVR-L2 of SEQ ID NO: 32 (Fab, name in Kabat numbering, V domains shown)
VH: B8 VH
VL: B8 VL with K27Q, S56R, N57H, E59K, S60R
notes: Fab on phage
B27: huMA79b graft variant with HVR-L3 of SEQ ID NO: 20 (Fab, name in Kabat numbering, V domains shown)
VH: B8 VH
VL: B8 VL with K27Q, E97S
notes: Fab on phage; also called SPL-5 mutation

The target in the first experiment is T1, extracellular domain of human CD79b (huCD79becd) (human, UniProt P40259 29-159).
T1 construct: expressed in CHO cells
T1 sequence: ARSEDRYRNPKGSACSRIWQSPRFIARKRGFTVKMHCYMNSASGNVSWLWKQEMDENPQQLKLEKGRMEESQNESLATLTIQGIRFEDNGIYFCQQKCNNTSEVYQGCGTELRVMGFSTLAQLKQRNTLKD
The experiment can be described thus: Biacore (SPR), IgG. On the procedure:
Binding of Fab and IgG variants of MA79b, the MA79b-grafted “humanized” antibody or MA79b-grafted “humanized” antibody variants to immobilized huCD79becd or huCD79b-Fc or the 16 amino acid peptide containing the epitope for MA79b was measured by surface plasma resonance. Affinity determinations were performed by surface plasmon resonance using a BIAcore™-2000. The antigen, huCD79becd or huCD79b-Fc was immobilized (approximately 50-200 RU) in 10 mM sodium acetate pH 4.8 on a CM5 sensor chip. Due to a large avidity effect, affinity measurements were sensitive to the amount of huCD79becd immobilized. For this reason, affinities, determined for samples run on different days, were normalized to MA79b that was run along side as a standard. In experiments that measured binding to the 16 amino acid peptide containing the epitope for MA79b ([…]) (SEQ ID NO: 16), the biotinylated peptide was captured (approximately 20 RU) on a streptavidin coated sensor chip. Purified MA79b-grafted “humanized” antibody variant (as Fab or IgG) (a 2-fold serial dilution of 0.5 to 1000 nM in PBST) was injected at a flow rate of 30 μL/min. Each sample was analyzed with 4-minute association and 10-minute disassociation. After each injection the chip was regenerated using 10 mM Glycine pH 1.7. […]
(SPR reads the build-up and loss of mass on a sensor chip optically.)
On to B1, for which the “fold improvement in dimeric binding compared to variant 17” value was determined as 2 fold.

For another experiment, the target named is T2, human CD79b (human, UniProt P40259 29-229).
T2 construct: endogenous CD79b on B-cell lines (BJAB, BJAB-luciferase, DoHH-2); also called PRO36249; CD79b expressed on the surface of BJAB-luciferase cells
T2 sequence: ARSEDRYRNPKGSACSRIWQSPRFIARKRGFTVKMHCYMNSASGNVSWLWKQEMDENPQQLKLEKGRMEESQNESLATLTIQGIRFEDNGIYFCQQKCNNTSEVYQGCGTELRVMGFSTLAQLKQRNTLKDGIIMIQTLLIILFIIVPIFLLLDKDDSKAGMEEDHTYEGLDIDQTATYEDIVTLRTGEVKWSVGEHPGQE
Briefly: FACS on BJAB-luciferase cells. The procedure: The binding affinity of thio huMA79b.v18, thio huMA79b.v28 drug conjugates and thio MA79b drug conjugates to CD79b expressed on BJAB-luciferase cells was determined by FACS analysis. Further, the binding affinity of thio anti-cynoCD79b(ch10D10) drug conjugates to CD79b expressed on BJAB cells expressing cynoCD79b was determined by FACS analysis.
Briefly, approximately 1×10⁶ cells in 100 μl were contacted with varying amounts (1.0 μg, 01. μg or 0.01 μg of Ab per million cells of BJAB-luciferase cells or BJAB cells expressing cynoCD79b (for anti-cynoCD79b thioMAbs)) of one of the following anti-CD79b thioMAb drug conjugates or naked (unconjugated Ab as a control): (1) thio MA79b-LC(V205C)-MC-MMAF or (2) thio MA79b-HC(A118C)-MC-MMAF (FIGS. 29A-B, respectively); (3) thio huMA79b.v18-HC(A118C)-MC-MMAF, (4) thio huMA79b.v18-HC(A118C)-MC-vcPAB-MMAE or (5) thio huMA79b.v18-HC(A118C)-BMPEO-DM1 (FIGS. 30B-D, respectively); (6) thio huMA79b.v28-HC(A118C)-MCvcPAB-MMAE, (7) thio huMA79b.v28-HC(A118C)-BMPEO-DM1, or (8) thio huMA79b.v28-HC(A118C)-MC-MMAF (see FIGS. 31B-31D, respectively); or (9) thio anti-cynoCDb79(ch10D10)-HC(A118C)-MCvcPAB-MMAE, (10) thio anti-cynoCD79b(ch10D10)-HC(A118C)-BMPEO-DM1 or (11) thio anti-cynoCD79b(ch10D10)-HC(A118C)-MC-MMAF (see FIGS. 32B-32D, respectively). PE conjugated mouse anti-human Ig was used as the secondary detecting antibody (BD Cat#555787).
On to B2, for which the binding result was “binds”.

Consider B3, for which the binding result was “binds”.

For B4, the binding result was “binds”.

For the molecule B5, the binding result was “binds”.

As for B6, the binding result was “binds”.

With B7, the binding result is given as “binds”.

A further experiment addresses T1, extracellular domain of human CD79b …. The experiment can be described thus: phage selection, Fab on phage. The procedure: For phage selection, the extracellular domain of CD79b (huCD79becd) (2 μg/ml) was immobilized in PBS on MaxiSorp microtiter plates (Nunc) overnight at 4° C. Plates were blocked for at least 1 h using Casein Blocker (Pierce). Phage were harvested from the culture supernatant and suspended in PBS containing 0.5% BSA and 0.05% Tween 20 (PBSBT). Following addition of the phage library and phage selection for 2 h, microtiter wells were washed extensively with PBS containing 0.05% Tween 20 (PBST) to remove unbound phage and bound phage were eluted by incubating the wells with 100 mM HCl for 30 min. Selection stringency may be increased during successive rounds of selection by increasing the number of washes with PBST or by incubating with soluble huCD79becd for increasing time periods prior to elution.
Consider B8, for which the binding result is reported as “binds”.

For the molecule B9, the binding result is recorded as “binds”.

As for B10, the binding result is on record as “binds”.

On to B11, for which the binding result is given as “binds”.

On to B12, for which the binding result was “binds”.

As for B13, the binding result is listed as “binds”.

B14: the binding result is “binds”.

B15: the binding result is “binds”.

B16: the binding result is “binds”.

Turning to B17, the binding result is reported as “binds”.

In the case of B18, the binding result is on record as “binds”.

As for B19, the binding result was “binds”.

On to B20, for which the binding result is “binds”.

As to B21, the binding result is listed as “binds”.

B22: the binding result is “binds”.

Consider B23, for which the binding result is on record as “binds”.

On to B24, for which the binding result was “binds”.

B25: the binding result is on record as “binds”.

In the case of B26, the binding result is listed as “binds”.

As to B27, the binding result is “binds”.
